From US20240279318A1 (NANJING LEGEND BIOTECH, published 2024) come the findings set out here.

Substitutions are numbered along the chain they refer to.

The labels stand for the following.
B1: AS170036 VL1VH1 (scFv)
scFv: QSALTQPRSVSGSPGQSVTISCAGTSSDVGSENYVSWYQQHPGKAPKLMIYQVNKRASGVPDRFSGSKSGNTASLTISGLQAEDEADYYCASYRSSDHNIVFGGGTKLTVLGGGGSGGGGSGGGGSEVQLVESGGGLVQPGGSLRLSCAASGFTFSSYAMSWVRQAPGKGLEWVSTINSGTGSPYYADSVKGRFTISRDNSKNTLYLQMNSLRAEDTAVYYCAKNFFDGSWFLGPPAMDYWGQGTLVTVSSHHHHHH
notes: Crude scFv from E. coli TG1 supernatant; also called AS170036 VL1VH1 scFv
B2: AS170036 VL1VH1-VHG108N (scFv)
scFv: B1 scFv with G234N
B3: AS170036 VL1VH1-VLH98I (scFv)
scFv: B1 scFv with H98I
B4: AS170036 VL1VH1-VHS57H (scFv)
scFv: B1 scFv with S183H
B5: AS170036 VL1VH1-VLH98V (scFv)
scFv: B1 scFv with H98V
B6: AS170036 VL1VH1-VLH98F (scFv)
scFv: B1 scFv with H98F
B7: AS170036 VL1VH1-VLH98T (scFv)
scFv: B1 scFv with H98T
B8: AS170036 VL1VH1-VLE32W (scFv)
scFv: B1 scFv with E32W
B9: AS170036 VL1VH1-VLH98Q (scFv)
scFv: B1 scFv with H98Q
B10: AS170036 VL1VH1-VLH98A (scFv)
scFv: B1 scFv with H98A
B11: AS170036 VL1VH1-VHS57M (scFv)
scFv: B1 scFv with S183M
B12: AS170036 VL1VH1-VHS57K (scFv)
scFv: B1 scFv with S183K
B13: AS170036 VL1VH1-VHS57Q (scFv)
scFv: B1 scFv with S183Q
B14: AS170036 VL1VH1-VHG108S (scFv)
scFv: B1 scFv with G234S
B15: AS170036 VL1VH1-VHS57R (scFv)
scFv: B1 scFv with S183R
B16: AS170036 VL1VH1-VLH98P (scFv)
scFv: B1 scFv with H98P
B17: AS170036 VL1VH1 (scFv)
scFv: B1 scFv
notes: Crude scFv from E. coli TG1 supernatant, captured on the chip; also called AS170036 VL1VH1 scFv
B18: 16-AS170036 VL1VH1-56Y108A (scFv)
scFv: B1 scFv with G182Y, G234A
notes: Crude scFv mutein of AS170036 VL1VH1
B19: 48-AS170036 VL1VH1-56Y98Q108S (scFv)
scFv: B1 scFv with H98Q, G182Y, G234S
notes: as for B18
B20: 45-AS170036 VL1VH1-56Y98I108S (scFv)
scFv: B1 scFv with H98I, G182Y, G234S
notes: as for B18
B21: 03-AS170036 VL1VH1-56Y98Q (scFv)
scFv: B1 scFv with H98Q, G182Y
notes: as for B18
B22: 10-AS170036 VL1VH1-57K98F (scFv)
scFv: B1 scFv with H98F, S183K
notes: as for B18
B23: 25-AS170036 VL1VH1-57K108A (scFv)
scFv: B1 scFv with S183K, G234A
notes: as for B18
B24: 27-AS170036 VL1VH1-57K108S (scFv)
scFv: B1 scFv with S183K, G234S
notes: as for B18
B25: 43-AS170036 VL1VH1-56Y98I108A (scFv)
scFv: B1 scFv with H98I, G182Y, G234A
notes: as for B18
B26: 42-AS170036 VL1VH1-56Y98F108S (scFv)
scFv: B1 scFv with H98F, G182Y, G234S
notes: as for B18
B27: 67-AS170036 VL1VH1-57K98F108A (scFv)
scFv: B1 scFv with H98F, S183K, G234A
notes: as for B18
B28: 34-AS170036 VL1VH1-98I108A (scFv)
scFv: B1 scFv with H98I, G234A
notes: as for B18
B29: 15-AS170036 VL1VH1-57M98Q (scFv)
scFv: B1 scFv with H98Q, S183M
notes: as for B18
B30: 22-AS170036 VL1VH1-57H108A (scFv)
scFv: B1 scFv with S183H, G234A
notes: as for B18
B31: 05-AS170036 VL1VH1-56N98I (scFv)
scFv: B1 scFv with H98I, G182N
notes: as for B18
B32: 19-AS170036 VL1VH1-56N108A (scFv)
scFv: B1 scFv with G182N, G234A
notes: as for B18
B33: 49-AS170036 VL1VH1-56N98F108A (scFv)
scFv: B1 scFv with H98F, G182N, G234A
notes: as for B18
B34: 40-AS170036 VL1VH1-56Y98F108A (scFv)
scFv: B1 scFv with H98F, G182Y, G234A
notes: as for B18
B35: AS167821 sdAb-mIgG2aFc (Fc fusion, not shown: a dimerising Fc or GST)
chain: QVRLVESGGGSVQAGGSLRLSCAASGRTYSTYCMGWFRQAPGKEREGVATIYIGSGRTYYVDSVKGRFTISQDNAKNTLYLQMNNLKPEDTAMYYCTADVDPYESSWSRGLGYWGQGTQVTVSS
notes: i647-labelled for flow cytometry

The target of the first test is T1, AFP158/HLA-A*02:01 complex (human).
T1 construct: flowed as analyte in SPR
Nature of the test: SPR, crude scFv captured, pMHC analyte.
Procedure: (§1) The experiment was carried out as follows. The crude scFv protein were captured onto the sensorchip. Different concentrations (320, 160, 40 nM) of AFP158/HLA-A*02:01 complex flowed over the sensorchip surface, and were allowed to bind the antibody fragment for 100 s followed by injection of the running buffer to allow dissociation of the complex. On-rate (kd) and off-rate (kd) were calculated based on association and dissociation curve, and were used to estimate the equilibrium dissociation constant (KD).
(§2) The crude scFv muteins were then subjected to SPR affinity measurement by the method mentioned above.
Molecule B1 had a Kd of 230 nM, a koff of 0.11 s⁻¹ and a kon of 490000 M⁻¹ s⁻¹.

Another test deals with T1, AFP158/HLA-A*02:01 complex. Nature of the test: SPR, crude scFv captured, pMHC analyte. The source holds these as a separate data set.
Procedure: as §1
Regarding B1, binding was characterised by a dissociation constant (Kd) of 270 nM, the koff was determined as 0.1 s⁻¹ and the on-rate constant (kon) is 380000 M⁻¹ s⁻¹.
Regarding B2, the Kd came to 140 nM, the koff came out at 0.045 s⁻¹ and the kon was 330000 M⁻¹ s⁻¹.
For B3, the Kd is 78 nM, the koff stood at 0.018 s⁻¹ and the kon is 230000 M⁻¹ s⁻¹.
As to B4, the Kd amounted to 35 nM, the koff was 0.0061 s⁻¹ and the kon was 170000 M⁻¹ s⁻¹.
In the case of B5, the affinity, expressed as Kd, was 78 nM; the koff was 0.018 s⁻¹; the association rate constant (kon) is 230000 M⁻¹ s⁻¹.
B6 yielded a Kd of 74 nM, a koff of 0.033 s⁻¹ and a kon of 450000 M⁻¹ s⁻¹.
As to B7, the Kd amounted to 84 nM, the koff stood at 0.025 s⁻¹ and the kon is 290000 M⁻¹ s⁻¹.
B8 showed a Kd of 100 nM, an off-rate constant (koff) of 0.016 s⁻¹ and a kon of 150000 M⁻¹ s⁻¹.
Take B9: the Kd stood at 75 nM, the koff was 0.016 s⁻¹ and the kon came out at 220000 M⁻¹ s⁻¹.
In turn, B10 had an equilibrium dissociation constant (Kd) of 110 nM, a koff of 0.027 s⁻¹ and a kon of 260000 M⁻¹ s⁻¹.
As for B11, the Kd turned out to be 90 nM, the koff was determined as 0.025 s⁻¹ and the kon worked out at 280000 M⁻¹ s⁻¹.
Taken in the same sequence, the figures for B12 were 56 nM, 0.0081 s⁻¹ and 150000 M⁻¹ s⁻¹.
Regarding B13, the Kd turned out to be 100 nM, the koff is 0.022 s⁻¹ and the kon was determined as 210000 M⁻¹ s⁻¹.
With B14, binding was characterised by a dissociation constant (Kd) of 96 nM, the off-rate constant (koff) turned out to be 0.026 s⁻¹ and the kon worked out at 270000 M⁻¹ s⁻¹.
For the molecule B15, binding was put at a Kd of 88 nM, the off-rate constant (koff) was found to be 0.017 s⁻¹ and the kon turned out to be 200000 M⁻¹ s⁻¹.
Taken in the same sequence, the figures for B16 were 70 nM, 0.017 s⁻¹ and 240000 M⁻¹ s⁻¹.

A further test concerns the target T1, AFP158/HLA-A*02:01 complex. Nature of the test: SPR, fold vs AS170036 VL1VH1.
Procedure: as §1
The molecule B1 displayed an Affinity increase of 1 fold.
B2 had an Affinity increase of 2 fold.
The same measure, in the same setting: with B3 the figure was 3.1 fold; with B4, 6.9 fold.
B5 registered an Affinity increase of 3.2 fold.
Consider B6, for which the Affinity increase worked out at 3.3 fold.
As to B7, the Affinity increase stood at 2.9 fold.
On to B8, for which the Affinity increase worked out at 2.4 fold.
The molecule B9 showed an Affinity increase of 3.3 fold.
Still for that read-out and setting: the same measure for B10: 2.3 fold; for B11: 2.7 fold.
B12 registered an Affinity increase of 4.4 fold.
As for B13, the Affinity increase amounted to 2.4 fold.
As to B14, the Affinity increase was 2.8 fold.
As for B15, the Affinity increase stood at 2.8 fold.
Molecule B16 had an Affinity increase of 3.5 fold.

The target of a further test is T2, AFP158/HLA-A*02:01 complex (human).
T2 construct: flowed over the chip as analyte; also called AFP158 peptide/HLA-A*02:01 complex
Nature of the test: SPR (BIAcore T200), crude scFv captured, complex flowed over.
Procedure: as §1
The 84 muteins were then tested for their selectivity. The 12 recombinant AFP158 homologous peptides/HLA-A*02:01 complex were mixed in three groups (group 1: ZNF566 and ARNTL, group 2: CDC14A, PTP4A1, BRCA2 and RCL1, group 3: OR1I1, OR51B6, OR6C1, ATG9A, RP1 and NR2E1). The binding of the 84 antibodies to these complexes were then measured by method described above.
Molecule B17 yielded an SPR binding level of 196 RU.
The molecule B18 registered an SPR binding level of 601 RU.
As for B19, the SPR binding level was 817 RU.
The same measure, in the same setting: the same measure for B20: 689 RU.
On to B21, for which the SPR binding level was determined as 738 RU.
B22: the SPR binding level is 614 RU.
Turning to B23, the SPR binding level came to 554 RU.
B24 yielded an SPR binding level of 627 RU.
B25 had an SPR binding level of 664 RU.
For the molecule B26, the SPR binding level was determined as 682 RU.
In turn, B27 had an SPR binding level of 686 RU.
The molecule B28 gave an SPR binding level of 559 RU.
In turn, B29 came in with an SPR binding level of 554 RU.
In the case of B30, the SPR binding level was found to be 571 RU.
B31 showed an SPR binding level of 564 RU.
On to B32, for which the SPR binding level is 526 RU.
Consider B33, for which the SPR binding level was determined as 604 RU.
B34 returned an SPR binding level of 587 RU.

The next test addresses T1, AFP158/HLA-A*02:01 complex. Kind of test: SPR, fold vs AS170036 VL1VH1. This is another data set of the same source.
Procedure: as §1, §2
As to B1, the Affinity increase was 1 fold.

In a further test the target is T3, AFP158/HLA-A*02:01 complex (human).
T3 construct: biotinylated on the BSP by BirA for ELISA and panning; also called biotinylated AFP158/HLA-A*02:01 complex; Bio-AFP158
Kind of test: SPR, antibody captured via mIgG2a-Fc, complex as analyte.
Regarding B35, the Kd turned out to be 95 nM, the koff is 0.039 s⁻¹ and the kon turned out to be 410000 M⁻¹ s⁻¹.

For another test, the target named is T1, AFP158/HLA-A*02:01 complex. Kind of test: SPR, crude scFv captured, pMHC analyte. The source holds these as a separate data set.
Procedure: as §1, §2
B1: the Kd turned out to be 230 nM, the koff turned out to be 0.11 s⁻¹ and the kon was found to be 490000 M⁻¹ s⁻¹.

The next test addresses T1, AFP158/HLA-A*02:01 complex. Kind of test: SPR, fold vs AS170036 VL1VH1. The source holds these as a separate data set.
As for B1, the Affinity increase is 1 fold.
